Patent US12077763B2, “RNA-based control of powdery mildew” (Greenlight Biosciences, Inc., priority 2021, dated 2024)

B1: GS3920 (nucleic acid)
sense: UCAACGUAAAUUUUAUAAGCAAGGCUCUGGUAAAGUGGAACCUUACUUUUUAAUCCUCAACAAGGAAGGAGAGUUCAUUGAUGUAGUCGUUGAAGGGCUGAUGAAUAACUUCAUAAGAUGUCAACAAACAAGAAAAAUCUCUACAGAAUUAAUUUCAGAUGCACCUAAUCAACCGGUACCAUCUCAAAUAUCUGGAUAUCAAUGUGGUAAAUUUUUUUUUAGCAAUGAGGAACUUGAGAAUACUGCAAAUGUGGCUAGAGAUAUCAUGCUUCAGAGAAGUCAAAAUAAAAUUCCCACUAAGUAUAA
antisense: UUAUACUUAGUGGGAAUUUUAUUUUGACUUCUCUGAAGCAUGAUAUCUCUAGCCACAUUUGCAGUAUUCUCAAGUUCCUCAUUGCUAAAAAAAAAUUUACCACAUUGAUAUCCAGAUAUUUGAGAUGGUACCGGUUGAUUAGGUGCAUCUGAAAUUAAUUCUGUAGAGAUUUUUCUUGUUUGUUGACAUCUUAUGAAGUUAUUCAUCAGCCCUUCAACGACUACAUCAAUGAACUCUCCUUCCUUGUUGAGGAUUAAAAAGUAAGGUUCCACUUUACCAGAGCCUUGCUUAUAAAAUUUACGUUGA
B2: GS3921 (nucleic acid)
sense: UUCGCGGUGUCUUCCUUUCCAGAGCCUUUAGUCUUUGAAGGAUUUUCUUCUUCAUCCCCAUCUUCACCCUCCGCUUCUGCAUUGACUUCGUCGGCCUUUUUUGCUUUUUUUUCUUCCCCAGAUUUGCCUUUCGUUGUUAGAGCUCCUAGGCCACUAGCGAGAGAAUUUGAACCAUUACCACCGCCAACAAGAACUCCUGCUUUACCUCCUAUGGUCACCUCUUGAAUACUCUGACUUUCAUUUUCCGCAGCAUUGGCUUGCUUUUUGGAAGAUGAGCUAGAGUCAUGUGAUUUUUCUGAAUUCGAUGCCUUAUUUUUCUGAUCUUUU
antisense: AAAAGAUCAGAAAAAUAAGGCAUCGAAUUCAGAAAAAUCACAUGACUCUAGCUCAUCUUCCAAAAAGCAAGCCAAUGCUGCGGAAAAUGAAAGUCAGAGUAUUCAAGAGGUGACCAUAGGAGGUAAAGCAGGAGUUCUUGUUGGCGGUGGUAAUGGUUCAAAUUCUCUCGCUAGUGGCCUAGGAGCUCUAACAACGAAAGGCAAAUCUGGGGAAGAAAAAAAAGCAAAAAAGGCCGACGAAGUCAAUGCAGAAGCGGAGGGUGAAGAUGGGGAUGAAGAAGAAAAUCCUUCAAAGACUAAAGGCUCUGGAAAGGAAGACACCGCGAA
B3: GS1814: dsRNA trigger SEQ ID NO 161; gene target Importin subunit beta-3 (nucleic acid)
DNA: TTATTGGTGGTAGAATGTTCAAAACCTCTGATATAAGTTCATAGTATTTTTGCTTGGATTTTTTGTTGAGACTCCTGAAGAATGAAGCGAAAGCTTCCATAGCGGCCAGTCGGACTGTCACGTCATCATCCTTAAATCCCTTGGTAAAAGCAGAAAGAACAGTATCTTCATGCTGCTTTTCGATTATTCTAGGAGTTGTTGAGAAGATTCTATAGGCAATCTCACGTTGGCCCATCACTTGCGACATACTGAGTGTAAAGAGAACACCTAGAATTTCGGGCCATTGCAACTTATCATCGGAGTACTGCCTAGCGACTTCTGCGACTGCATCACCTATCTTATTTCTTGTAGACGTTTCGGTTTCAGAGCTAAGGGCTTCAAGAAGTTTTTGTCTGATAATATGTCCTTGTTCTGTCGGCAAAGAGATAAATGTTTCCACTGACTGATTATTTTGTAATTTTCGAGTCTTTGAAGCTATCCGTCTGAAGATGACTGCAGCAAAAGAGCGTTTCGCAGGATCGTTTGAGCCCTGAATTTGTTCCACCAGGCCAATCAAGAGCATCTCTGGTTTAAGCAACGTCCAATTATTCGTTAAAT
B4: GS3919 (nucleic acid)
sense: AUUGCGCCAAAAUGUGAGGUAAGGAUUACUAACUUGCUGAGCUUGAAGAACUCAUCAACACCAGUAUCUUUAGCUGGUAAACAAGUUAAGCAAAUUCAAAGCAACUUACCAUCGACAAGUAAACAACUUGGAAUAUUUGCAAAAGAAAACAUCUUACCGGGCGAAUCAAUCCUUAAAGAGCUGUCAUAUCUCACUGUUAAUAAUAGACUCAAAGGCCCUCUAUGUGAUGCUUGUAGUGCUGAAAUUCCUUCUCUAUAUGAAACUGAAAGUACAGCAAUGAGCUGUCUCGAGUGUGAUGAAAUCUCAUUCUGUAGUGAUGAAUGCAAACGUGGAGCUGAGCUCGAAUAUCAUCCAGCAGUAUGUGGUAAAGAUGUUGAGACAAUUGGCAAGGACUGG
antisense: CCAGUCCUUGCCAAUUGUCUCAACAUCUUUACCACAUACUGCUGGAUGAUAUUCGAGCUCAGCUCCACGUUUGCAUUCAUCACUACAGAAUGAGAUUUCAUCACACUCGAGACAGCUCAUUGCUGUACUUUCAGUUUCAUAUAGAGAAGGAAUUUCAGCACUACAAGCAUCACAUAGAGGGCCUUUGAGUCUAUUAUUAACAGUGAGAUAUGACAGCUCUUUAAGGAUUGAUUCGCCCGGUAAGAUGUUUUCUUUUGCAAAUAUUCCAAGUUGUUUACUUGUCGAUGGUAAGUUGCUUUGAAUUUGCUUAACUUGUUUACCAGCUAAAGAUACUGGUGUUGAUGAGUUCUUCAAGCUCAGCAAGUUAGUAAUCCUUACCUCACAUUUUGGCGCAAU
B5: GS3922 (nucleic acid)
sense: CCCGAAUGAAUGCUAUCAACAUGGGAUAGUAGUUCACGUUCACUCCGAAAUUUUAUAUUACAAAACAUACACUCUGCAUGUUCUUUUCGAAUAUGAGCCUGUAACUUUGAAUAACUUGUGAAGCCUAGAUUUAAUGGCGUACCAUCUGAAUUAAAAGAUCCUGUCAAGCAACAUUCAUUACAGAAAUAUCGAGCACUGCCAUGAGCUCGCUCUUGGUGUCGACGAAGGCUGGCGGAACUAUCGAAACCUGAGUUGCAACUUUCGCCAGUGACAGGGUCAACAUGGACACAGGGAUACGGCAUAAGCUGAAGAUGUUCAGAGCGAAUAUGACGCUGGAGAGUUUGAUGUUUUCGGAAAUUUUGGCUACAGGGUGGGUAAUUUGUACAUUUGAAU
antisense: AUUCAAAUGUACAAAUUACCCACCCUGUAGCCAAAAUUUCCGAAAACAUCAAACUCUCCAGCGUCAUAUUCGCUCUGAACAUCUUCAGCUUAUGCCGUAUCCCUGUGUCCAUGUUGACCCUGUCACUGGCGAAAGUUGCAACUCAGGUUUCGAUAGUUCCGCCAGCCUUCGUCGACACCAAGAGCGAGCUCAUGGCAGUGCUCGAUAUUUCUGUAAUGAAUGUUGCUUGACAGGAUCUUUUAAUUCAGAUGGUACGCCAUUAAAUCUAGGCUUCACAAGUUAUUCAAAGUUACAGGCUCAUAUUCGAAAAGAACAUGCAGAGUGUAUGUUUUGUAAUAUAAAAUUUCGGAGUGAACGUGAACUACUAUCCCAUGUUGAUAGCAUUCAUUCGGG
B6: GS3917 (nucleic acid)
sense: CCAGGCUAAAUCUGUGCUCCAAACACAGUCAGUAAUACAGACUUUAAUUGCUGAGUGUUUAUCUUUGGGGAAAACAAAAAUGAUUAUUGAUCUCUCCUCGAAUAGUGGAGGUAAUUUGGUCGUUGGUUAUGACACAUUCCGACAAUUUUUCCCUACCAUUGAACAGCCAGGUUAUUCACGAUUUCGAUUACACGAGGCGCUAAAAAUUAUUACGAAACAGAUCUCGAAAAUCGCAUCGAAUUUCUCUUUUACAAGUACAAACCCCACUGAUUAUGAUUAUUACCAAACUCCGUUUAAUUAUAGAUUCGAUCUAAAUGAAACCAAUGAAAAAUUUCUUAGCUACGAGGAUAAAUUCAGUCCAAGAAAAUUUAAUGGUGAUGAAUUCACUAGCAAUAUGA
antisense: UCAUAUUGCUAGUGAAUUCAUCACCAUUAAAUUUUCUUGGACUGAAUUUAUCCUCGUAGCUAAGAAAUUUUUCAUUGGUUUCAUUUAGAUCGAAUCUAUAAUUAAACGGAGUUUGGUAAUAAUCAUAAUCAGUGGGGUUUGUACUUGUAAAAGAGAAAUUCGAUGCGAUUUUCGAGAUCUGUUUCGUAAUAAUUUUUAGCGCCUCGUGUAAUCGAAAUCGUGAAUAACCUGGCUGUUCAAUGGUAGGGAAAAAUUGUCGGAAUGUGUCAUAACCAACGACCAAAUUACCUCCACUAUUCGAGGAGAGAUCAAUAAUCAUUUUUGUUUUCCCCAAAGAUAAACACUCAGCAAUUAAAGUCUGUAUUACUGACUGUGUUUGGAGCACAGAUUUAGCCUGG

Tested on: E. necator
Assay: Leaf disc assay, dry inoculum (settling tower), decrease in disease severity / hyphal growth (Example 2)
Settings: decrease in disease severity (hyphal growth) relative to untreated control; time point 1 (untreated control hyphal growth ≥50%); value ± SE

Molecule	% decrease =/− SE TP1 [%]
B1	14 ± 11
B2	3 ± 8
B3	8 ± 4
B4	23 ± 8

Same assay, conditions: decrease in disease severity (hyphal growth) relative to untreated control; time point 2; value ± SE

Molecule	% decrease =/− SE TP2 [%]
B1	12 ± 12
B2	8 ± 8
B5	27 ± 12
B6	29 ± 12
B4	16 ± 9
